Experimental data: patent publication US8623997B2, “Variant Hhip1 protein and methods and uses thereof” (Curis, Inc., priority 2008, dated 2014)
Positions count from the first letter of the chain named. Numbers in names are those of the source. Blank lines part the entries; values can stand above or below the molecule they belong to.

Assays:
[1] = molecular target: T1, biotinylated-ShhN-Cys (Homo sapiens, UniProt Q15465); experiment: Bio-layer interferometry (Octet) binding kinetics of Hhip1β12 variants to Shh; conditions: for Kd / koff × 10^−4 / kon × 10^3: 1:1 binding model, n.d stands for no binding detected; for Shh binding of Hhip1β12 mutants (in words): bio-layer interferometry, compared with WT Hhip1β12
T1 construct: ShhN-Cys (residues 24-197); His6 (N); made in house; host or cells: E. coli Rosetta 2
Protocol: The binding kinetics of the Hhip1β12 fragments as well as Hhip1β12 mutants were measured by bio-layer interferometry in the presence or absence of 10 mM EDTA on an Octet (Fortébio). Streptavidin high binding FA biosensors were loaded with biotinylated-ShhN-Cys in kinetic buffer (Fortébio). The loaded biosensors were washed and transferred to wells containing Hhip1β12 protein at concentrations of 1.2, 1.0, 0.8 and 0.6 μM in kinetic buffer. Hhip1β12 association and dissociation was measured for 30 and 20 min, respectively. Kinetic parameters (kon and koff) and affinities (KD) were calculated from a non-linear fit of the data based on a 1:1 binding model between Hhip1β12 and Shh using the Octet software. Multiple independent measurements were performed.
In order to assess the contribution of residues in the Hhip1 L1, L2 and L3 loops for binding to Shh, a series of single alanine Hipβ12 mutants were made using the QuickChange DNA mutagenesis kit (Stratagene) using the manufacturer's protocol, and their affinity for Shh was measured by bio-layer interferometry (as described in Example 2B). These mutations included Hhip1β12 mutants 1312A, E381A, M382A, D383A, D378A, T418A, Q420A, E380A, D387A and ΔL2.

[2] = system: Shh signaling; experiment: Gli-luciferase co-culture signaling assay (S12 fibroblasts overlaid with Shh-producing HT29 cells); format: cell-based, murine S12 fibroblasts / human HT29 cells; conditions: for IC50: 24 hrs, read-out: IC50 inhibition of Shh signaling
Source text: Due to the lack of both N- and C-terminal lipid modifications of Shh and the absence of other cellular components, the in vitro assays may not fully recapitulate Hip-Shh interactions occurring in a cellular environment. Therefore, a co-culture assay consisting of murine S12 fibroblasts stably transfected with a Gli luciferase reporter gene and (Frank-Kamenetsky et al. (2002) J. Biol. 1:10) and human colorectal adenocarcinoma HT29 cells that secrete fully lipid-modified Shh (Yauch et al. (2008) Nature 455:406) was used to determine which extracellular domains of Hhip1β12 mediate inhibition of Shh signaling in mammalian cells.
Briefly, S12 cells, which are 10T1/2 fibroblasts stably transfected with 8× Gli-binding sites fused to a luciferase reporter (Frank-Kamenetsky et al. (2002) J. Biol. 1:10), were plated at 10,000 cells/well of a white-walled clear bottomed 96-well plate (Costar 3610) for […] in regular growth medium (HG-DMEM, 10% FBS, 1% glutamine). After 24 h, the media was removed and Shh-producing HT29 cells at 20,000 cells/well were plated and the co-culture was grown in regular media. After 24 h, the media was changed to 0.5% serum HG-DMEM±Hhip1β12 fragments and further incubated for 24 hrs to stimulate signaling. Gli-luciferase activity was measured using a HTS-Steady Lite luciferase detection kit (Perkin Elmer); multiple assays were carried out, each in triplicate. Data were fit to a 4-parameter sigmoidal equation, from which the IC50 was derived using Kaleidagraph (Synergy Software).

[3] = system: Ptch1; experiment: FACS assay of Shh649 binding to Ptch1 expressing 293 cells and its competition; parameters: species or system human
Protocol: Shh649 (1 nM) preincubated with indicated proteins was bound to Ptch1 expressing cells, washed and analyzed by FACS. The average mean Shh649 fluorescence intensity (MFI) of two independent dilution series was plotted versus inhibitor concentration, with error bars denoting standard deviations. […] Assays were carried out using octylated Ihh wildtype and T154I proteins. Concentration dependent relative luciferase units (RLU) are plotted as the average of four independent dilution series±standard deviation and normalized to the maximal Ihh WT stimulation on each plate as 100%. […] The data is representative of three independent experiments.
Shh is in the same orientation as in the Hhip-Shh complex in Panel A. Zn^2+ and Ca^2+ cations are shown. […] Surface representation of Shh with residues within 4.5 Å of Hhip (shaded gray) and Cdon (hatched areas). Area within dotted boarder indicates the boundaries of the Cdon footprint, which overlaps the Hhip binding surface. […] Shh histidine residues are shown as sticks with nitrogen atoms shaded dark. The Hhip L2 loop is shown in transparent surface and Zn^2+ cation is shown. Histidine 35 is not shown since the ordered portion of the Shh structure begins at L40. […] The spectral region of the histidine side chains is shown. […] The average mean Shh649 fluorescence intensity (MFI) of two independent dilution series was plotted versus protein concentration, with error bars denoting standard deviations. Ctrl refers to the His-6 (SEQ ID NO: 87) tagged HGF β protein. […] Shh649 (0.33 nM) was preincubated with 56 nM (170-fold excess) of Hhipβ12 wildtype or L2 mutant proteins, 5E1 or controls then bound to Ptch1 cells (black) or 293 cells (gray), washed and analyzed by FACS. Shh649 binding to Ptch1 cells in the absence of inhibitors was normalized to 100% and the data expressed as a percentage of this signal (average of two independent duplicates with standard deviations). Ctrl and CtrlFc refer to HGF β and the IgG1 isotype control Trastuzumab, respectively. The data is representative of at least three independent experiments.
Shh649, conjugated to Dylight 649 (Pierce) at its C-terminus (vide supra), was incubated at 0.33 or 1 nM for 1 h on ice with various Hhip or control proteins prior to incubation with HEK-293 cells (293) or 293 cells expressing full length human Patched-1 (Ptch1-293 clone 10) (Carpenter D. et al. (1998) Proc. Natl. Acad. Sci. USA 95:13630-13634) in FACS buffer (3% FBS in PBS) for 1 h on ice. After washing 3 times in FACS buffer, live cells (sorted by propidium iodide exclusion) were analyzed by flow cytometry in the APC channel using a FACSCalibur (BD Biosciences). Control proteins included His6-Shh, His6-Ihh, HGF β-His639, Trastuzumab (Genentech, Inc.) as a human IgG1 isotype control for Hhip1β12-Fc, and mIgG1 (Molecular Probes Z25105) as a murine Mab control for anti-Shh 5E1 Mab34.

binding to Shh in the presence of EDTA ([1]; 10 mM EDTA): completely abolished
Kd [1]: 150 nM
koff × 10^−4 [1]: 2.3 × 10^−4 [s^−1]
kon × 10^3 [1]: 1.5 × 10^3 [M^−1 × s^−1]
B1: Hhip1β1: β-propeller-EGF1 construct (SEQ ID NO:13), residues 193-637 of SEQ ID NO:2 (protein, listed as Homo sapiens)
chain: SNYLDQMEEYDKVEEISRKHKHNCFCIQEVVSGLRQPVGALHSGDGSQRLFILEKEGYVKILTPEGEIFKEPYLDIHKLVQSGIKGGDERGLLSLAFHPNYKKNGKLYVSYTTNQERWAIGPHDHILRVVEYTVSRKNPHQVDLRTARVFLEVAELHRKHLGGQLLFGPDGFLYIILGDGMITLDDMEEMDGLSDFTGSVLRLDVDTDMCNVPYSIPRSNPHFNSTNQPPEVFAHGLHDPGRCAVDRHPTDININLTILCSDSNGKNRSSARILQIIKGKDYESEPSLLEFKPFSNGPLVGGFVYRGCQSERLYGSYVFGDRNGNFLTLQQSPVTKQWQEKPLCLGTSGSCRGYFSGHILGFGEDELGEVYILSSSKSMTQTHNGKLYKIVDPKRPLMPEECRATVQPAQTLTSECSRLCRNGYCTPTGKCCCSPGWEGDFCRTA
IC50 fold higher than Hhip1ECD ([2]; Gli-luciferase co-culture): about 4 fold
IC50 ([2]; Gli-luciferase co-culture): 20.3 nM

Shh binding of Hhip1β12 mutants (in words) [1]: abrogated binding to Shh
B2: Hhip1ΔL2: Hhip1β12 mutant with deletion of the entire L2 loop (protein)
chain: SNYLDQMEEYDKVEEISRKHKHNCFCIQEVVSGLRQPVGALHSGDGSQRLFILEKEGYVKILTPEGEIFKEPYLDIHKLVQSGIKGGDERGLLSLAFHPNYKKNGKLYVSYTTNQERWAIGPHDHILRVVEYTVSRKNPHQVDLRTARVFLEVAELHRKHLGGQLLFGPDGFLYIILGDGMITTGSVLRLDVDTDMCNVPYSIPRSNPHFNSTNQPPEVFAHGLHDPGRCAVDRHPTDININLTILCSDSNGKNRSSARILQIIKGKDYESEPSLLEFKPFSNGPLVGGFVYRGCQSERLYGSYVFGDRNGNFLTLQQSPVTKQWQEKPLCLGTSGSCRGYFSGHILGFGEDELGEVYILSSSKSMTQTHNGKLYKIVDPKRPLMPEECRATVQPAQTLTSECSRLCRNGYCTPTGKCCCSPGWEGDFCRTAKCEPACRHGGVCVRPNKCLCKKGYLGPQCEHHHHHH
competition of Shh649 binding to Ptch1 cells (in words) [3]: no inhibition
inhibitory activity (in words) ([2]; Gli-luciferase co-culture): no inhibitory activity

Shh binding of Hhip1β12 mutants (in words) [1]: inability
B3: D383A: L2 loop single alanine variant made in the Hhip1β12 construct (protein)
chain: SNYLDQMEEYDKVEEISRKHKHNCFCIQEVVSGLRQPVGALHSGDGSQRLFILEKEGYVKILTPEGEIFKEPYLDIHKLVQSGIKGGDERGLLSLAFHPNYKKNGKLYVSYTTNQERWAIGPHDHILRVVEYTVSRKNPHQVDLRTARVFLEVAELHRKHLGGQLLFGPDGFLYIILGDGMITLDDMEEMAGLSDFTGSVLRLDVDTDMCNVPYSIPRSNPHFNSTNQPPEVFAHGLHDPGRCAVDRHPTDININLTILCSDSNGKNRSSARILQIIKGKDYESEPSLLEFKPFSNGPLVGGFVYRGCQSERLYGSYVFGDRNGNFLTLQQSPVTKQWQEKPLCLGTSGSCRGYFSGHILGFGEDELGEVYILSSSKSMTQTHNGKLYKIVDPKRPLMPEECRATVQPAQTLTSECSRLCRNGYCTPTGKCCCSPGWEGDFCRTAKCEPACRHGGVCVRPNKCLCKKGYLGPQCEHHHHHH
inhibitory activity (in words) ([2]; Gli-luciferase co-culture): retained activity
maximal inhibition ([2]; at saturating conditions): ~85%

Kd [1]: 320 nM
koff × 10^−4 [1]: 4.8 × 10^−4 [s^−1]
kon × 10^3 [1]: 1.5 × 10^3 [M^−1 × s^−1]
Shh binding of Hhip1β12 mutants (in words) ([1]; listed as 1312A): little effect on Shh
B4: I312A: L1 loop single alanine variant made in the Hhip1β12 construct (protein)
chain: B3 chain with I120A, A191D
inhibitory activity (in words) ([2]; Gli-luciferase co-culture): essentially identical to wildtype Hhip1β12

Kd [1]: 67 nM
koff × 10^−4 [1]: 7.9 × 10^−4 [s^−1]
kon × 10^3 [1]: 1.2 × 10^3 [M^−1 × s^−1]
B5: Hhip1ECD: Hhip1 extracellular domain construct (SEQ ID NO:11), residues 20-667 of SEQ ID NO:2 (protein, listed as Homo sapiens)
chain: SNYLDQMEEYDKVEEISRKHKHNCFCIQEVVSGLRQPVGALHSGDGSQRLFILEKEGYVKILTPEGEIFKEPYLDIHKLVQSGIKGGDERGLLSLAFHPNYKKNGKLYVSYTTNQERWAIGPHDHILRVVEYTVSRKNPHQVDLRTARVFLEVAELHRKHLGGQLLFGPDGFLYIILGDGMITLDDMEEMDGLSDFTGSVLRLDVDTDMCNVPYSIPRSNPHFNSTNQPPEVFAHGLHDPGRCAVDRHPTDININLTILCSDSNGKNRSSARILQIIKGKDYESEPSLLEFKPFSNGPLVGGFVYRGCQSERLYGSYVFGDRNGNFLTLQQSPVTKQWQEKPLCLGTSGSCRGYFSGHILGFGEDELGEVYILSSSKSMTQTHNGKLYKIVDPKRPLMPEECRATVQPAQTLTSECSRLCRNGYCTPTGKCCCSPGWEGDFCRTAKCEPACRHGGVCVRPNKCLCKKGYLGPQCE
IC50 ([2]; Gli-luciferase co-culture): 5.3 nM
